# Article PMC12667517, “Gigaxonin Potentiates Antiviral Innate Immune Responses by Targeting cGAS and TREX1” (Advanced Science, 2025)
# T1: endogenous IRF3 in THP-1 cells (human (endogenous in THP-1)), Q14653
# T1 chain: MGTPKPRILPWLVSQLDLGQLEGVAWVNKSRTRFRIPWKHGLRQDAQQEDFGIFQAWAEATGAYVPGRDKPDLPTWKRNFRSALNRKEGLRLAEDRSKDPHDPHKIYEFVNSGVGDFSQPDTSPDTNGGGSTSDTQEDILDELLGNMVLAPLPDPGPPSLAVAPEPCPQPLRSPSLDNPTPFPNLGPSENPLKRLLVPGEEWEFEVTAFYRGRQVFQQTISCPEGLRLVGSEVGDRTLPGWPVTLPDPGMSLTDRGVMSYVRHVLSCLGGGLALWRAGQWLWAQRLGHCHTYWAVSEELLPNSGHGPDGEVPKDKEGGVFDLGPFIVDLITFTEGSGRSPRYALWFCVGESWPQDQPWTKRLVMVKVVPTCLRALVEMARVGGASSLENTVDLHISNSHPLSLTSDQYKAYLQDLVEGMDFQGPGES
# Assays:
# [1] = target: T1, endogenous IRF3 in THP-1 cells (human …); experiment: native gel or EMSA; native PAGE of THP-1 cell lysates, cells infected with HSV-1 (MOI = 1) for the indicated times; conditions: remark: other sources report otherwise
# [2] = target: the molecule itself; experiment: as above
Binder,stoichiometry N [1],stoichiometry N [2]
"endogenous IRF3 in THP-1 cells, Q14653 1-427 (natural protein) MGTPKPRILPWLVSQLDLGQLEGVAWVNKSRTRFRIPWKHGLRQDAQQEDFGIFQAWAEATGAYVPGRDKPDLPTWKRNFRSALNRKEGLRLAEDRSKDPHDPHKIYEFVNSGVGDFSQPDTSPDTNGGGSTSDTQEDILDELLGNMVLAPLPDPGPPSLAVAPEPCPQPLRSPSLDNPTPFPNLGPSENPLKRLLVPGEEWEFEVTAFYRGRQVFQQTISCPEGLRLVGSEVGDRTLPGWPVTLPDPGMSLTDRGVMSYVRHVLSCLGGGLALWRAGQWLWAQRLGHCHTYWAVSEELLPNSGHGPDGEVPKDKEGGVFDLGPFIVDLITFTEGSGRSPRYALWFCVGESWPQDQPWTKRLVMVKVVPTCLRALVEMARVGGASSLENTVDLHISNSHPLSLTSDQYKAYLQDLVEGMDFQGPGES",2,
"endogenous gigaxonin in THP-1 cells (natural protein, human (endogenous in THP-1), UniProt Q9H2C0 1-597, looked up, By native PAGE both dimer and monomer in the steady state; source: endogenous, THP-1 lysate) MAEGSAVSDPQHAARLLRALSSFREESRFCDAHLVLDGEEIPVQKNILAAASPYIRTKLNYNPPKDDGSTYKIELEGISVMVMREILDYIFSGQIRLNEDTIQDVVQAADLLLLTDLKTLCCEFLEGCIAAENCIGIRDFALHYCLHHVHYLATEYLETHFRDVSSTEEFLELSPQKLKEVISLEKLNVGNERYVFEAVIRWIAHDTEIRKVHMKDVMSALWVSGLDSSYLREQMLNEPLVREIVKECSNIPLSQPQQGEAMLANFKPRGYSECIVTVGGEERVSRKPTAAMRCMCPLYDPNRQLWIELAPLSMPRINHGVLSAEGFLFVFGGQDENKQTLSSGEKYDPDANTWTALPPMNEARHNFGIVEIDGMLYILGGEDGEKELISMECYDIYSKTWTKQPDLTMVRKIGCYAAMKKKIYAMGGGSYGKLFESVECYDPRTQQWTAICPLKERRFGAVACGVAMELYVFGGVRSREDAQGSEMVTCKSEFYHDEFKRWIYLNDQNLCIPASSSFVYGAVPIGASIYVIGDLDTGTNYDYVREFKRSTGTWHHTKPLLPSDLRRTGCAALRIANCKLFRLQLQQGLFRIRVHSP",,2
